One may read the Kd as the equilibrium constant for the complex coming apart. A higher Kd goes with a looser complex.

The labels stand for the following.
B1: Pyk2-PRR3 peptide (peptide)
peptide: EFTGPPQKPPRLGAQS
B2: Pyk2 super-mutant peptide (peptide)
peptide: TAFQEPAPKASQAQYRPPP
B3: Pyk2-PRR2 peptide (peptide)
peptide: TAFQEPPPKPSRPKYRPPP

The target in this experiment is cortactin SH3 domain (UniProt Q60598 488-546). In words: NMR titration.
cortactin SH3 domain, sequence (Q60598 488-546): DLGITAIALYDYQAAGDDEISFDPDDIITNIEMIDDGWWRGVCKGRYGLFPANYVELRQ
Molecule B1 returned a Kd of 650 ± 10 µM. In the case of B2 it was above 1000 µM. In the case of B3 it was 40 ± 5 µM.

These data come from doi:10.1101/2022.04.06.487297 (bioRxiv, 2022).
